Measured values reported in the supplement of paper PMC9876800.

Test system: peptide library, one residue held at a place counted from the S/T acceptor
Test: relative phosphorylation of the sub-library (ratio to the mean residue at this position); higher = residue favoured
Settings: human
Method in brief: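 Each biotinylated degenerate peptide sub-library fixed one residue at one position around a central Ser/Thr and was incubated with a purified recombinant kinase, a human or orthologue construct, in 384-well plates. The 90 min reactions, under kinase-specific conditions, contained 50 μM peptide and 50 μM ATP spiked with γ-32P-ATP. Phosphorylation was read by phosphorimaging spots on streptavidin membranes and quantifying them by densitometry. Relative sub-library phosphorylation expresses each value as a ratio to the mean residue at that position.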

Chain of NLK, construct: Full length (Q9UBE8 whole entry, looked up): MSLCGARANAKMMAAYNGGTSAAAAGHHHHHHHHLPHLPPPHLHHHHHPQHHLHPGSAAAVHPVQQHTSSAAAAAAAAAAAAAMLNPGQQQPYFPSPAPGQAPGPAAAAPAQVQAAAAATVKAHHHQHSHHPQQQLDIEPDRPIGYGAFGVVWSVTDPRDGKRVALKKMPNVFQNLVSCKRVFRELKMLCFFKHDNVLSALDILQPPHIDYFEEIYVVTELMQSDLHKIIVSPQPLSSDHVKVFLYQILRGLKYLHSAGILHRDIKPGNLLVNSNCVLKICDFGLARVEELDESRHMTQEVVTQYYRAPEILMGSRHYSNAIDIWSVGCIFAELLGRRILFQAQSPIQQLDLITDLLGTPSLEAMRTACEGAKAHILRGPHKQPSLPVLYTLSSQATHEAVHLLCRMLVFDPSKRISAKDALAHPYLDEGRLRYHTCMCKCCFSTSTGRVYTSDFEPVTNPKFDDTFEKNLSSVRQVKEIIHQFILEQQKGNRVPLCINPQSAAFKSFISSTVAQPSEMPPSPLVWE
Chain of SIK2, construct: Full length (Q9H0K1 whole entry, looked up): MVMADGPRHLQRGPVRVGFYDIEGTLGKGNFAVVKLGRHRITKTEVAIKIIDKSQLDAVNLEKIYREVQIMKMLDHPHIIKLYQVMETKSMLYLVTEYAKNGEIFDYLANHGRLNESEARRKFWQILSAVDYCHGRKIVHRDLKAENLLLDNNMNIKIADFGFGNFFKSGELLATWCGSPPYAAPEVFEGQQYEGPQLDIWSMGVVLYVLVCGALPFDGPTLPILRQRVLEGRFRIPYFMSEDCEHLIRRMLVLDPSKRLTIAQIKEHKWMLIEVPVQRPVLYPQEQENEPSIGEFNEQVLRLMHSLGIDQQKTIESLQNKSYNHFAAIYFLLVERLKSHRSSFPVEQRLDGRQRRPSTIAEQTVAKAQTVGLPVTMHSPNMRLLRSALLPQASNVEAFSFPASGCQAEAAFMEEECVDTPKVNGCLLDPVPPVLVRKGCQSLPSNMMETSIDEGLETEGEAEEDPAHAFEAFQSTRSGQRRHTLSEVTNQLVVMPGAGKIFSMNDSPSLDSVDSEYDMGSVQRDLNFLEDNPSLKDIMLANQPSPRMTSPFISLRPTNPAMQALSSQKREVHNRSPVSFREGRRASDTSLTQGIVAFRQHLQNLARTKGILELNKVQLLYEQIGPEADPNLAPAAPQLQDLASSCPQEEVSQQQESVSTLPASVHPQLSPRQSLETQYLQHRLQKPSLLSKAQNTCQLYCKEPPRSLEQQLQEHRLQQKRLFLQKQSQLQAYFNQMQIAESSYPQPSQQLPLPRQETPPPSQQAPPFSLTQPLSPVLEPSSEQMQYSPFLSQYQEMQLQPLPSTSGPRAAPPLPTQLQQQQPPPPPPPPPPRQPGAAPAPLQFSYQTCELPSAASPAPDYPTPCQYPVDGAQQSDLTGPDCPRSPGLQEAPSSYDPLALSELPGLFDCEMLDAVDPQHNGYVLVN
Chain of IKBKB, construct: Full length (O14920 whole entry, looked up): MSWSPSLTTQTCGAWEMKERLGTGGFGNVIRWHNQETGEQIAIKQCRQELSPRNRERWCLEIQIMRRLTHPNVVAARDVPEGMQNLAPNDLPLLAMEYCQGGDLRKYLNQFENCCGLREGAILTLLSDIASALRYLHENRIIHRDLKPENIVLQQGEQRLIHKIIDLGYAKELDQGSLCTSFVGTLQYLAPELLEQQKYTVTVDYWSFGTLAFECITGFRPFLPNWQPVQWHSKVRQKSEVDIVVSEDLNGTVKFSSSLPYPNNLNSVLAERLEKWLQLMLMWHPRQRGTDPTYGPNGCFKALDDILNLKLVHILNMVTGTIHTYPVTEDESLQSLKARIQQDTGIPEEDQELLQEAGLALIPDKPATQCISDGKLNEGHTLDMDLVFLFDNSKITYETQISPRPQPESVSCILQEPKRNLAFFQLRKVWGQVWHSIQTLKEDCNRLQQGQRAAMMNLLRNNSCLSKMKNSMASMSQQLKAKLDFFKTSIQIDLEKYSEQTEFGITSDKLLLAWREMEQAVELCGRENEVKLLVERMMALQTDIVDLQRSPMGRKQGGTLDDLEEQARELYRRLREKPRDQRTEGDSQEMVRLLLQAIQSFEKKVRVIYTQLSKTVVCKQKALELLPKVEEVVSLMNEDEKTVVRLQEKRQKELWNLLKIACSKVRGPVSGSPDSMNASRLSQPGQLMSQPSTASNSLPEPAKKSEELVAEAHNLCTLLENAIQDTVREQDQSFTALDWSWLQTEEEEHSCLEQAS
Chain of STK26, construct: Full length (Q9P289 whole entry, looked up): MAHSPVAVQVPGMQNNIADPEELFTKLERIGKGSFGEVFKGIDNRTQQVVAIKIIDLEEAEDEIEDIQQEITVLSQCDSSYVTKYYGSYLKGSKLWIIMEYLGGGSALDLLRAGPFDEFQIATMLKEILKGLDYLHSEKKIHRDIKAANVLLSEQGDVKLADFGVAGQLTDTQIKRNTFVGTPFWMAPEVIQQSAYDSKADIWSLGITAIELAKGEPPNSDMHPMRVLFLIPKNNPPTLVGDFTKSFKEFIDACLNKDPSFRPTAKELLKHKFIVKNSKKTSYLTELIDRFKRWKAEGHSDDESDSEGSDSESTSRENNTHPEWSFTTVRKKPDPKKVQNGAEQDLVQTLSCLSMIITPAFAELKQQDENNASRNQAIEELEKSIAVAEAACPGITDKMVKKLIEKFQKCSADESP

IKBKB, construct: Full length (from UniProt O14920)
relative phosphorylation
Settings	at +1	at +2	at +3	at +4	at -1	at -2	at -3	at -4	at -5
A fixed	0.6	0.901	1.06	1.08	0.811	0.919	0.94	1.15	1.22
D fixed	0.469	1.2	1.65	1.46	1.1	0.397	0.912	1.57	1.71
E fixed	0.544	1.27	1.65	1.43	0.941	0.805	1.05	1.8	1.52
F fixed	1.55	0.676	1.01	0.834	0.909	2.22	1.07	0.751	0.995
G fixed	1.12	1.2	1.46	1.09	0.478	0.442	1	1.24	1.23
H fixed	0.745	1.39	1.11	0.922	1.21	1.47	1.19	0.94	1.01
I fixed	2.06	0.812	0.71	0.769	0.89	1.11	0.762	0.749	0.741
K fixed	0.268	0.805	0.68	0.827	1.03	0.408	0.878	0.741	0.714
L fixed	2.05	0.783	0.816	0.81	1.22	1.48	0.699	0.754	0.687
M fixed	1.66	0.701	0.8	0.995	1.09	1.16	0.764	0.907	0.738
N fixed	0.613	1.5	1.1	1.08	1.15	1.06	1.01	0.988	1.03
P fixed	0.228	1.13	0.931	1.43	1.06	0.371	1.31	1.17	0.973
Q fixed	0.576	1.25	0.91	1.06	0.989	0.73	0.922	0.878	0.908
R fixed	0.362	1.08	0.608	0.672	1.07	0.583	1.76	0.975	0.842
V fixed	1.38	1.1	0.688	0.738	0.998	0.762	0.843	0.804	0.89
W fixed	1.46	0.525	0.904	1.02	0.895	0.85	0.885	0.733	0.926
Y fixed	1.33	0.665	0.917	0.773	1.16	2.23	1.01	0.851	0.864
pThr fixed	0.817	1.38	0.898	1.53	1.01	1.08	1.55	1.97	1.93
pTyr fixed	1.03	1.32	1.23	1.06	1.77	4.33	2.11	1.48	1.51

SIK2, construct: Full length (from UniProt Q9H0K1)
relative phosphorylation
Settings	at +1	at +2	at +3	at +4	at -1	at -2	at -3	at -4	at -5
A fixed	0.683	0.923	0.762	0.745	0.883	1.45	0.789	0.944	0.972
D fixed	0.42	0.461	1.59	0.353	0.463	0.232	0.255	0.57	0.48
E fixed	0.487	0.486	0.54	0.309	0.388	0.208	0.327	0.599	0.463
F fixed	1.13	0.924	1.51	0.96	0.685	1.5	0.969	0.98	1.2
G fixed	0.622	0.518	0.556	0.631	2.45	0.96	0.658	0.991	0.89
H fixed	1.06	1.1	1.23	0.79	1.03	1.37	1.14	1.02	0.858
I fixed	1.05	0.988	0.821	2.46	0.591	0.561	0.627	0.762	1.09
K fixed	1.18	1.19	0.856	1.11	1.65	1.26	2.14	1.56	1.5
L fixed	1.17	1.15	0.988	2.94	0.929	0.52	0.752	0.828	1.76
M fixed	1.68	0.94	0.916	1.4	1.03	0.664	0.765	1.02	1.17
N fixed	1.03	1.03	2.08	0.635	1	0.583	0.526	0.828	0.757
P fixed	0.336	0.68	0.33	0.578	0.923	0.394	0.788	0.729	0.767
Q fixed	1.61	0.991	0.856	0.602	1.05	0.607	0.634	0.88	0.704
R fixed	1.48	1.7	1.03	0.83	1.77	1.4	3.76	2.09	1.41
V fixed	1	0.965	0.638	1.16	0.641	0.771	0.637	0.857	0.959
W fixed	0.951	1.74	1.19	0.809	0.605	2.67	1.37	1.29	1.04
Y fixed	1.11	1.21	1.12	0.688	0.918	1.85	0.864	1.06	0.967
pThr fixed	0.905	0.696	0.382	0.389	0.467	0.567	0.613	0.787	0.791
pTyr fixed	0.499	0.38	0.573	0.35	0.746	0.54	0.614	0.526	0.71

NLK, construct: Full length (from UniProt Q9UBE8)
relative phosphorylation
Settings	at +1	at +2	at +3	at +4	at -1	at -2	at -3	at -4	at -5
A fixed	0.638	0.768	0.938	0.8	0.85	0.989	1.12	1.03	0.998
D fixed	0.435	0.514	0.628	0.634	0.604	0.568	0.652	0.931	1.01
E fixed	0.41	0.477	0.618	0.607	0.571	0.604	0.729	0.855	0.86
F fixed	0.806	0.705	0.863	0.75	0.88	0.807	0.723	0.802	0.926
G fixed	1.01	0.96	1.25	0.939	0.904	0.764	1.38	1.01	0.982
H fixed	0.652	1.23	1.04	0.982	1.21	0.842	0.819	1.11	1.02
I fixed	0.888	0.99	1.24	1.37	0.868	0.941	0.579	0.931	0.847
K fixed	0.654	1.56	1.39	1.47	1.16	0.992	0.991	1.18	1.19
L fixed	0.921	1.12	0.995	1	1.9	1.81	1.12	1.03	0.995
M fixed	0.902	0.853	1.01	0.983	1.38	1.56	1.63	0.992	0.768
N fixed	0.581	0.991	0.762	0.868	0.805	0.812	0.956	1.1	1.01
P fixed	5.41	0.754	0.9	0.946	1.07	1.42	1.16	0.89	1.02
Q fixed	0.629	0.904	0.883	0.948	0.953	1.03	0.941	1.02	1.06
R fixed	0.798	2.21	1.66	1.39	1.35	1.41	1.9	1.32	1.3
V fixed	0.777	1.09	0.989	1.16	0.995	0.861	0.864	0.85	0.831
W fixed	0.753	0.859	0.824	1.16	0.638	0.807	0.752	1.07	1.07
Y fixed	0.743	1.01	1.01	0.996	0.857	0.796	0.688	0.88	1.11
pThr fixed	0.784	0.694	0.723	0.725	0.775	0.996	0.944	1.18	0.965
pTyr fixed	0.717	0.523	0.796	0.631	0.774	0.772	0.734	0.661	0.949

STK26, construct: Full length (from UniProt Q9P289)
relative phosphorylation
Settings	at +1	at +2	at +3	at +4	at -1	at -2	at -3	at -4	at -5
A fixed	0.593	0.524	0.871	0.922	0.76	0.947	0.809	1.21	1.23
D fixed	0.265	0.606	0.583	0.538	0.894	0.424	0.625	0.745	0.706
E fixed	0.21	0.519	0.525	0.538	0.475	0.373	0.616	0.797	0.653
F fixed	1.24	0.246	0.869	0.625	0.499	0.972	0.754	0.771	0.777
G fixed	0.583	2.19	1.44	0.991	2.31	1.21	1.09	1.09	1.03
H fixed	0.805	1.06	1	1.06	1.11	1.35	1.01	1.17	1.05
I fixed	1.56	0.511	0.798	0.971	0.397	0.759	0.711	0.83	0.929
K fixed	0.666	3.49	2.55	2.01	2.16	2.08	2.31	1.64	1.92
L fixed	1.78	0.402	1.05	0.77	0.78	0.549	0.665	0.682	0.783
M fixed	1.3	0.358	0.667	0.818	0.666	0.613	0.79	0.773	0.74
N fixed	0.53	1.27	0.771	0.862	1.39	1.15	1.15	1.08	0.994
P fixed	0.372	1.03	0.636	0.828	0.551	0.659	0.739	0.879	0.791
Q fixed	0.642	0.774	0.741	0.932	0.938	0.882	0.903	0.939	1
R fixed	0.722	2.77	2.16	1.89	2.15	2.03	2.21	1.64	1.61
V fixed	1.4	0.517	0.751	0.874	0.483	0.942	0.846	0.954	1.01
W fixed	3.2	0.394	0.814	1.38	0.821	1.01	0.943	0.941	0.969
Y fixed	1.12	0.326	0.767	0.994	0.607	1.05	0.824	0.876	0.812
pThr fixed	0.722	0.707	0.584	0.815	0.813	1.05	0.981	0.958	0.86
pTyr fixed	0.604	0.368	0.714	0.54	1.2	1.19	0.996	0.69	0.834
